In patent US20250043302A1, “MUTATED HYDROXYPHENYLPYRUVATE DIOXYGENASE POLYPEPTIDE, AND CODING GENE AND USE THEREOF” (BEIJING DABEINONG BIOTECHNOLOGY CO., LTD., priority 2021, published 2025):

Columns and labels:
Assay type in all cases: in vivo
[1] = system: Arabidopsis thaliana T1 plants; experiment: Isoxaflutole tolerance of transgenic Arabidopsis thaliana T1 plants (spray, bleached leaf area grade, damage score); parameters: Scores (pesticide damage): scale not given here; conditions: spray, Arabidopsis thaliana T1 plants; for Classification and statistics of the grade of pesticide damage: Grade 0 (number of plants) / Classification and statistics of the grade of pesticide damage: Grade 1 (number of plants) / Classification and statistics of the grade of pesticide damage: Grade 2 (number of plants) / Classification and statistics of the grade of pesticide damage: Grade 3 (number of plants): 16 plants
How it was run: (§1)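 Damage was assessed by bleaching grade (0 none; 1 <50%; 2 >50%; 3 100% of leaf area) one week after spraying. Sprays on 18-day-old T1 and wild-type plants used field-rate multiples: topramezone 25–200, isoxaflutole 35–280, mesotrione 52.5–420 g ai/ha.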

[2] = system: Arabidopsis thaliana T1 plants; experiment: Topramezone tolerance of transgenic Arabidopsis thaliana T1 plants (spray, bleached leaf area grade, damage score); conditions: 7 DAT, Table 4; for Classification and statistics of the grade of pesticide damage: Grade 0 / Classification and statistics of the grade of pesticide damage: Grade 1 / Classification and statistics of the grade of pesticide damage: Grade 2 / Classification and statistics of the grade of pesticide damage: Grade 3: number of plants; for Scores: pesticide damage score 0-100
How it was run: as §1

[3] = system: Arabidopsis thaliana T1 plants; experiment: Mesotrione tolerance of transgenic Arabidopsis thaliana T1 plants (spray, bleached leaf area grade, damage score); parameters: Scores: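 damage score 0-100 computed as Σ(N×S)/(T×M)×100 over grades 0-3 with higher meaning more damage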; conditions: Arabidopsis thaliana T1 plants; for Grade 0 (classification and statistics of the grade of pesticide damage; number of plants) / Grade 1 (classification and statistics of the grade of pesticide damage; number of plants) / Grade 2 (classification and statistics of the grade of pesticide damage; number of plants) / Grade 3 (classification and statistics of the grade of pesticide damage; number of plants): 16 plants
How it was run: as §1

[4] = isoxaflutole 35 g ai/ha (0.5x field concentration)
[5] = isoxaflutole 70 g ai/ha (1x field concentration)

B1: AtHPPDm-F372A-F383W-02: nucleotide sequence encoding Arabidopsis thaliana HPPD with F372A+F383W; vector DBN11733 (nucleic acid)
DNA: ATGGGACATCAGAATGCTGCTGTATCAGAAAATCAAAATCATGATGATGGAGCCGCCTCCTCACCAGGGTTTAAGTTGGTTGGGTTCTCCAAGTTTGTACGGAAGAACCCAAAATCCGACAAGTTCAAGGTTAAACGCTTCCACCACATTGAATTCTGGTGCGGCGACGCCACCAATGTTGCTCGGCGTTTTTCATGGGGTTTAGGCATGAGATTCTCAGCAAAGAGTGACCTGAGCACCGGCAACATGGTTCATGCTAGCTATCTCTTAACATCTGGAGATTTGAGGTTTCTTTTCACGGCGCCGTACTCACCATCACTCTCCGCCGGCGAGATCAAACCCACCACGACTGCAAGCATACCTTCATTTGATCATGGTAGTTGCAGATCCTTCTTCTCGTCGCACGGCCTAGGGGTGCGCGCGGTCGCCATCGAAGTTGAAGATGCAGAATCAGCGTTTAGTATCAGCGTGGCAAATGGAGCTATTCCTTCCTCCCCTCCAATTGTCCTCAATGAGGCTGTAACTATTGCCGAGGTGAAGTTGTATGGAGATGTTGTGCTGAGATATGTTTCTTACAAGGCAGAGGACACTGAGAAATCTGAATTTTTGCCTGGTTTTGAAAGGGTCGAGGATGCTTCAAGTTTTCCTCTTGATTACGGCATACGACGGTTGGATCACGCGGTTGGAAATGTACCAGAACTTGGGCCGGCGCTCACTTATGTGGCTGGTTTCACTGGATTCCATCAATTTGCTGAGTTCACAGCTGATGATGTTGGGACTGCTGAAAGTGGGTTGAACTCTGCAGTCCTCGCCTCTAATGATGAAATGGTGCTCCTCCCGATCAACGAGCCTGTGCATGGCACCAAAAGGAAATCACAAATACAGACATATCTTGAGCACAATGAAGGTGCAGGGCTTCAACATCTTGCACTGATGTCTGAAGACATTTTCCGTACGCTGAGAGAGATGAGGAAGAGAAGTAGTATTGGTGGATTTGACTTCATGCCTTCTCCCCCACCAACTTACTACCAGAACTTGAAGAAGAGGGTTGGTGATGTGCTATCTGATGACCAGATCAAGGAGTGTGAAGAATTGGGCATTCTTGTTGATCGGGACGACCAAGGAACATTACTGCAGATAGCCACAAAACCACTTGGTGACCGCCCCACTATTTGGATTGAGATCATACAAAGAGTCGGCTGCATGATGAAGGATGAGGAAGGAAAAGCATATCAATCTGGTGGTTGTGGCGGCTTTGGGAAAGGAAACTTCTCTGAGCTGTTCAAATCCATCGAGGAGTATGAGAAGACCTTGGAGGCCAAGCAGCTCGTGGGTTGA
modifications: AtHPPDm-F372A-F383W-02 Nucleotide Sequence
notes: vector DBN11733
[1]; [4]
  Resistance evaluation: Highly
  Scores (pesticide damage): 15
  Classification and statistics of the grade of pesticide damage: Grade 0 (number of plants): 10
  Classification and statistics of the grade of pesticide damage: Grade 1 (number of plants): 5
  Classification and statistics of the grade of pesticide damage: Grade 2 (number of plants): 1
  Classification and statistics of the grade of pesticide damage: Grade 3 (number of plants): 0
[1]; [5]
  Resistance evaluation: Moderately
  Scores (pesticide damage): 29
  Classification and statistics of the grade of pesticide damage: Grade 0 (number of plants): 5
  Classification and statistics of the grade of pesticide damage: Grade 1 (number of plants): 9
  Classification and statistics of the grade of pesticide damage: Grade 2 (number of plants): 1
  Classification and statistics of the grade of pesticide damage: Grade 3 (number of plants): 1
[2]; topramezone 25 g ai/ha (1×)
  Classification and statistics of the grade of pesticide damage: Grade 0: 9
  Classification and statistics of the grade of pesticide damage: Grade 1: 7
  Classification and statistics of the grade of pesticide damage: Grade 2: 0
  Classification and statistics of the grade of pesticide damage: Grade 3: 0
  Scores: 15
  Resistance evaluation: highly
[2]; topramezone 100 g ai/ha (4×)
  Classification and statistics of the grade of pesticide damage: Grade 0: 6
  Classification and statistics of the grade of pesticide damage: Grade 1: 7
  Classification and statistics of the grade of pesticide damage: Grade 2: 1
  Classification and statistics of the grade of pesticide damage: Grade 3: 2
  Scores: 31
  Resistance evaluation: moderately
[3]; mesotrione 52.5 g ai/ha
  Resistance evaluation: Moderately
  Scores: 21
  Grade 0 (classification and statistics of the grade of pesticide damage; number of plants): 8
  Grade 1 (classification and statistics of the grade of pesticide damage; number of plants): 6
  Grade 2 (classification and statistics of the grade of pesticide damage; number of plants): 2
  Grade 3 (classification and statistics of the grade of pesticide damage; number of plants): 0
[3]; mesotrione 105 g ai/ha
  Resistance evaluation: Poorly resistant
  Scores: 44
  Grade 0 (classification and statistics of the grade of pesticide damage; number of plants): 2
  Grade 1 (classification and statistics of the grade of pesticide damage; number of plants): 8
  Grade 2 (classification and statistics of the grade of pesticide damage; number of plants): 5
  Grade 3 (classification and statistics of the grade of pesticide damage; number of plants): 1
